Changes are numbered by the printed parent chain. Each block holds one binder with its values, some of them ahead of it.
Columns and labels:
Test in all cases: flow cytometry on transfected HEK293 cells;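 note: antibodies applied at 50 µg/ml, binding called specific when fluorescence exceeds the mean signal on a negative control chicken or mouse MET construct plus four SD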
[1] = molecular target: T1, Mouse Blade 1-7
T1 construct: human/mouse chimera on transfected HEK293 cells; also called AA 25-513
Protocol: (§1) Cut-off values defined as the average fluorescence signal of all antibodies tested at 50 μg/ml to the negative control chicken or mouse MET construct+four standard deviations were employed to discriminate background binding from specific binding for the domain exchange or blade exchange constructs.
T1 MET ECD-SV5-GPI fusion: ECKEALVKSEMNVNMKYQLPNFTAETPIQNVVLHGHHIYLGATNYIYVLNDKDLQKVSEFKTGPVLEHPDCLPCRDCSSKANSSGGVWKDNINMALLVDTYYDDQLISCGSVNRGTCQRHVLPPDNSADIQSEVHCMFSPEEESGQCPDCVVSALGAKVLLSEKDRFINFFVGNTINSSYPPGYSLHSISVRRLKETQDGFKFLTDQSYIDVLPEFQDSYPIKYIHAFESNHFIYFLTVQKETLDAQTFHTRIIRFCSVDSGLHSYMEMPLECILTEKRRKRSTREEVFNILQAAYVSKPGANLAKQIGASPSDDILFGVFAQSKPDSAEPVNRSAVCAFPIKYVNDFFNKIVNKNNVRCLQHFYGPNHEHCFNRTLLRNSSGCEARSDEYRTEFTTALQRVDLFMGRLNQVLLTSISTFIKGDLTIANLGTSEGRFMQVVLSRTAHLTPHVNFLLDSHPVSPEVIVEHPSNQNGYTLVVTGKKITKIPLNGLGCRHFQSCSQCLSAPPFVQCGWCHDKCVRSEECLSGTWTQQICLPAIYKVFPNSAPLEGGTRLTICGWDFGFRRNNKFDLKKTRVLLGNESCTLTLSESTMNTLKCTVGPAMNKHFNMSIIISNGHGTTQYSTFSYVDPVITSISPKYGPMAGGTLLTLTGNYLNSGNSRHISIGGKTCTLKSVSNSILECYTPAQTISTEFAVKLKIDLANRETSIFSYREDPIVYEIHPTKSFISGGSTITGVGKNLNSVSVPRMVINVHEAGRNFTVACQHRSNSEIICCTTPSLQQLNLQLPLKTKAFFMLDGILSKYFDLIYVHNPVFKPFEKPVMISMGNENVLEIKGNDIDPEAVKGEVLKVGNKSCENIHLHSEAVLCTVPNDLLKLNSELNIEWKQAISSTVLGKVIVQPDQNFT

[2] = molecular target: T2, Mouse Blade 1-3
T2 construct: human/mouse chimera on transfected HEK293 cells; also called AA 25-233
Protocol: as §1
T2 MET ECD-SV5-GPI fusion: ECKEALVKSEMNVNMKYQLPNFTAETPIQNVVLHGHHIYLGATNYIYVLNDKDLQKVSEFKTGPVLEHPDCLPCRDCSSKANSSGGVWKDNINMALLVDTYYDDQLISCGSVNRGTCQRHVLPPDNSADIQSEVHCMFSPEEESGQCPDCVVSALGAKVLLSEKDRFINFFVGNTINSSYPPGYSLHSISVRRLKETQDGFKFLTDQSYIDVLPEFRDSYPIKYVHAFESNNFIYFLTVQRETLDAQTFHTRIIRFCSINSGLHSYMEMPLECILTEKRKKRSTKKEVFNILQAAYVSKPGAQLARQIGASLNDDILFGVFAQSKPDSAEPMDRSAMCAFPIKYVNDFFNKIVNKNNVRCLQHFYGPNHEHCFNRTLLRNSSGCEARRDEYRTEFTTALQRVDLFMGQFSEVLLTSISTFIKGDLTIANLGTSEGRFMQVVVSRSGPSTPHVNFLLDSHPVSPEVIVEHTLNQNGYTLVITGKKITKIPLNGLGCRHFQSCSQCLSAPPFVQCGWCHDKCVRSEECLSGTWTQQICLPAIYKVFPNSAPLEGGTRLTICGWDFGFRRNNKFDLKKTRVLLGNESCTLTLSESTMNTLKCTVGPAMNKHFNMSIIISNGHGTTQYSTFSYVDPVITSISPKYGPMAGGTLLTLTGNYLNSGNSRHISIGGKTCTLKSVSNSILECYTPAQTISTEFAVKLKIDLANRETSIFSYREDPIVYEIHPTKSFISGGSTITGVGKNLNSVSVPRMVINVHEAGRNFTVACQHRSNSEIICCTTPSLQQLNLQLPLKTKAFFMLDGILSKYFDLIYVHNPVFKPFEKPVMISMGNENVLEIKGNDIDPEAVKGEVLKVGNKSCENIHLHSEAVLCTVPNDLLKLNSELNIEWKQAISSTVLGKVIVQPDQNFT

[3] = molecular target: T3, LS5
T3 construct: human/mouse chimera on transfected HEK293 cells; also called AA 25-473
Protocol: as §1
T3 MET ECD-SV5-GPI fusion: T1 MET ECD-SV5-GPI fusion with P470T, S471L, V480I

binding result [1]: no binding (tested: 50 µg/ml) | binding result [2]: no binding (tested: 50 µg/ml) | binding result [3]: no binding (tested: 50 µg/ml)
B1: humanized antibody 9338 (antibody, human IgG1, kappa, V domains shown)
VH: QVQLVQSGAEVKKPGSSVKVSCKASGYTFTSYWMHWVRQAPGQGLEWMGYINPSSGHIENNQKFKDRVTITADKSTSTAYMELSSLRSEDTAVYYCARGRFAYWGQGTLVTVSS
VL: EIVLTQSPATLSLSPGERATLSCSASSSVSSGYLYWYQQKPGQAPRLLIYSTSNLASGIPARFSGSGSGTDFTLTISSLEPEDFAVYYCHQWSSYPFTFGSGTKLEIKR
notes: also called Hu9338; hu9338

binding result [1]: no binding (tested: 50 µg/ml) | binding result [2]: no binding (tested: 50 µg/ml) | binding result [3]: no binding (tested: 50 µg/ml)
B2: humanized antibody 9006 (antibody, human IgG1, kappa, V domains shown)
VH: QVQLVQSGSELKKPGASVKVSCKASGYTFTNFRMNWVKQAPGQGLKWMGWINTYTGEPTYVDDLKGRFVFSLDTSVSTAYLQISSLKAEDTAVYYCARKGIARAMDYWGQGTTVTVSS
VL: DIVMTQSPDSLAVSLGERATINCKSSQSLLDSGNQKNYLAWYQQKPGQPPKLLIFGASTRESGVPDRFSGSGSGTDFTLTISSLQAEDVAVYYCQNDHSYPYTFGQGTKLEIKR
notes: also called Hu9006; hu9006

Reference: US20180327500A1 (SYMPHOGEN A S, published 2018)
